In article doi:10.1101/2020.04.05.026310 (bioRxiv, 2020):

Target: the molecule itself
Assay: SEC-MALS

Protein	stoichiometry N
mouse pyridoxal kinase (mPDXK), wild type (enzyme, UniProt Q8K183 1-312, looked up) MEGECRVLSIQSHVVRGYVGNRAAMFPLQVLGFEVDAVNSVQFSNHTGYAHWKGQVLKSQELHELYEGLKVNDVNKYDYVLTGYTRDKSFLAMVVDIVRELKQQNSRLVYVCDPVMGDKWNGEGSMYVPQDLLPVYRDKVVPVADIITPNQFEAELLSGRKIHSQEEAFEVMDMLHCMGPDTVVITSSDLPSSQGSDYLIALGSQRMRKPDGSTVTQRIRMEMRKVEAVFVGTGDLFAAMLLAWTHKHPDNLKVACEKTVSAMQHVLQRTIRCAKAEAGEGQKPSPAQLELRMVQSKRDIEDPEIVVQATVL	2
mouse pyridoxal kinase (mPDXK) F43R (enzyme, UniProt Q8K183 1-312, looked up) MEGECRVLSIQSHVVRGYVGNRAAMFPLQVLGFEVDAVNSVQRSNHTGYAHWKGQVLKSQELHELYEGLKVNDVNKYDYVLTGYTRDKSFLAMVVDIVRELKQQNSRLVYVCDPVMGDKWNGEGSMYVPQDLLPVYRDKVVPVADIITPNQFEAELLSGRKIHSQEEAFEVMDMLHCMGPDTVVITSSDLPSSQGSDYLIALGSQRMRKPDGSTVTQRIRMEMRKVEAVFVGTGDLFAAMLLAWTHKHPDNLKVACEKTVSAMQHVLQRTIRCAKAEAGEGQKPSPAQLELRMVQSKRDIEDPEIVVQATVL	2
mouse pyridoxal kinase (mPDXK) R86W (enzyme, UniProt Q8K183 1-312, looked up) MEGECRVLSIQSHVVRGYVGNRAAMFPLQVLGFEVDAVNSVQFSNHTGYAHWKGQVLKSQELHELYEGLKVNDVNKYDYVLTGYTWDKSFLAMVVDIVRELKQQNSRLVYVCDPVMGDKWNGEGSMYVPQDLLPVYRDKVVPVADIITPNQFEAELLSGRKIHSQEEAFEVMDMLHCMGPDTVVITSSDLPSSQGSDYLIALGSQRMRKPDGSTVTQRIRMEMRKVEAVFVGTGDLFAAMLLAWTHKHPDNLKVACEKTVSAMQHVLQRTIRCAKAEAGEGQKPSPAQLELRMVQSKRDIEDPEIVVQATVL	2
mouse pyridoxal kinase (mPDXK) V41W (enzyme, UniProt Q8K183 1-312, looked up) MEGECRVLSIQSHVVRGYVGNRAAMFPLQVLGFEVDAVNSWQFSNHTGYAHWKGQVLKSQELHELYEGLKVNDVNKYDYVLTGYTRDKSFLAMVVDIVRELKQQNSRLVYVCDPVMGDKWNGEGSMYVPQDLLPVYRDKVVPVADIITPNQFEAELLSGRKIHSQEEAFEVMDMLHCMGPDTVVITSSDLPSSQGSDYLIALGSQRMRKPDGSTVTQRIRMEMRKVEAVFVGTGDLFAAMLLAWTHKHPDNLKVACEKTVSAMQHVLQRTIRCAKAEAGEGQKPSPAQLELRMVQSKRDIEDPEIVVQATVL	2
mouse pyridoxal kinase (mPDXK) V41W/F43R double mutant (enzyme, UniProt Q8K183 1-312, looked up) MEGECRVLSIQSHVVRGYVGNRAAMFPLQVLGFEVDAVNSWQRSNHTGYAHWKGQVLKSQELHELYEGLKVNDVNKYDYVLTGYTRDKSFLAMVVDIVRELKQQNSRLVYVCDPVMGDKWNGEGSMYVPQDLLPVYRDKVVPVADIITPNQFEAELLSGRKIHSQEEAFEVMDMLHCMGPDTVVITSSDLPSSQGSDYLIALGSQRMRKPDGSTVTQRIRMEMRKVEAVFVGTGDLFAAMLLAWTHKHPDNLKVACEKTVSAMQHVLQRTIRCAKAEAGEGQKPSPAQLELRMVQSKRDIEDPEIVVQATVL	2
